Data reported in patent US8709506B2, “Synergistic compositions for the treatment of topical viral infections” (Vitro Bio Sarl, priority 2010, dated 2014).

Columns and labels:
[1] = system: herpes virus; format: cell-based; details: for % cell death after 72 h TCID50 herpes virus infection: protease 0.5 μg/ml, Vero cells, serum free medium, virus control 56.0 ± 2.3
[2] = system: influenza virus; format: cell-based; details: for % cell death after 72 h TCID50 influenza virus infection: protease 0.5 μg/ml, MDCK cells, serum free medium, virus control 48.21 ± 6.77

| Molecule | % increase in herpes virus growth compared to controls [1] | % cell death after 72 h TCID50 herpes virus infection [1] [%] | % increase in influenza viral growth compared to virus control [2] | % cell death after 72 h TCID50 influenza virus infection [2] [%] |
| --- | --- | --- | --- | --- |
| MMP-2: purified human MMP 2 (gelatinase A), AnaSpec (protein, UniProt P08253 110-660, looked up) 72 kDa type IV collagenase: YNFFPRKPKWDKNQITYRIIGYTPDLDPETVDDAFARAFQVWSDVTPLRFSRIHDGEADIMINFGRWEHGDGYPFDGKDGLLAHAFAPGTGVGGDSHFDDDELWTLGEGQVVRVKYGNADGEYCKFPFLFNGKEYNSCTDTGRSDGFLWCSTTYNFEKDGKYGFCPHEALFTMGGNAEGQPCKFPFRFQGTSYDSCTTEGRTDGYRWCGTTEDYDRDKKYGFCPETAMSTVGGNSEGAPCVFPFTFLGNKYESCTSAGRSDGKMWCATTANYDDDRKWGFCPDQGYSLFLVAAHEFGHAMGLEHSQDPGALMAPIYTYTKNFRLSQDDIKGIQELYGASPDIDLGTGPTPTLGPVTPEICKQDIVFDGIAQIRGEIFFFKDRFIWRTVTPRDKPMGPLLVATFWPELPEKIDAVYEAPQEEKAVFFAGNEYWIYSASTLERGYPKPLTSLGLPPDVQRVDAAFNWSKNKKTYIFAGDKFWRYNEVKKKMDPGFPKLIADAWNAIPDNLDAVVDLQGGGHSYFFKGAYYLKLENQSLKSVKFGSIKSDWLGC | +31.43% | 73.6 ± 6.20 | +49.14% | 71.90 ± 8.21 |
| MMP-12: purified human MMP-12 (elastase), AnaSpec (protein, UniProt P39900 106-470, looked up) Macrophage metalloelastase: GPVWRKHYITYRINNYTPDMNREDVDYAIRKAFQVWSNVTPLKFSKINTGMADILVVFARGAHGDFHAFDGKGGILAHAFGPGSGIGGDAHFDEDEFWTTHSGGTNLFLTAVHEIGHSLGLGHSSDPKAVMFPTYKYVDINTFRLSADDIRGIQSLYGDPKENQRLPNPDNSEPALCDPNLSFDAVTTVGNKIFFFKDRFFWLKVSERPKTSVNLISSLWPTLPSGIEAAYEIEARNQVFLFKDDKYWLISNLRPEPNYPKSIHSFGFPNFVKKIDAAVFNPRFYRTYFFVDNQYWRYDERRQMMDPGYPKLITKNFQGIGPKIDAVFYSKNKYYYFFQGSNQFEYDFLLQRITKTLKSNSWFGC | +19.86% | 67.12 ± 5.91 | +1.41% | 48.89 ± 4.39 |
